Article PMC8388095, “Specificity of Small c-Type Cytochromes in Anaerobic Ammonium Oxidation” (ACS Omega, 2021)

Assays:
[1] = molecular target: Kuenenia stuttgartiensis hydroxylamine oxidase (Kuenenia stuttgartiensis) (UniProt Q1PX48)
purified protein = substrate: NO; assay: purified protein; assay type: biochemical, Candidatus Kuenenia stuttgartensis; details: electron acceptor 50 μM bovine cytochrome c, 20 mM potassium phosphate pH 7.0, 37 °C, kcat per KsHAO trimer

Kustc0563nt (Kustc0563 after cleavage of the N-terminal His-tag) (natural protein)
Vmax NH2OH of hydroxylamine oxidation by KsHAO with 50 μM Kustc0563 as the electron acceptor (reduction of the acceptor followed at 550 nm) [1]: 15.8 µmol/min/mg | kcat NH2OH (KsHAO trimer) of hydroxylamine oxidation by KsHAO with 50 μM Kustc0563 as the electron acceptor [1]: 48.4 s^–1

bovine (Bos taurus) mitochondrial cytochrome c (from UniProt P62894 1-105) (natural protein)
Vmax NH2OH of hydroxylamine oxidation by KsHAO with 50 μM BtCytc as the electron acceptor (reduction of the acceptor followed at 550 nm) [1]: 2.7 µmol/min/mg | kcat NH2OH (KsHAO trimer) of hydroxylamine oxidation by KsHAO with 50 μM BtCytc as the electron acceptor [1]: 8.4 s^–1

B1: KsHAO (Candidatus Kuenenia stuttgartensis) (protein)
chain: CAMENGVAMAEGPTFQDVASQVFGQPVGPDNDGTLYIFGLTAKYTEPEYVDGRGPYKSFLKMLPSIRWYDPEHYWTNGSQTEGVFKNEECVLCHTVQTPTIVNDWKQSSHGSKDIRRGIGIKKDGKPVEDLVGCADCHGNNHQKLEMPTYKLCNDCHPKETAEHRAGGLGSHTHAYTVNVLEFSWHVGKPAEEVTGCAHCHAIAENRCSGCHTRHKFDPAEARKPTACRVCHMGIDHDEWAMYNTSIHGALYEAESARMDWGKKLKKGNYRVPTCAYCHMQNGDHNPQRFGTIYSDMGMFQVDRGAPKHKAKRDSWIKLCQDCHSPRFAADKLKEMDAGVNLSFTKWREAAAVIVGCYLDGVVDPMPEGSAPDWYGHYTFSLLPGGDPRFYATSNLERLGLEMICYLTGNVYKAYAHMSMYNQTYGNGSAFEQDRKLVEIKTEAAKLRRFAAIEKKIGLEHKSADFWKHGEYLDLLPGWKRKPGDVDVEWFKRTDIPHRANADAGVEIHH
notes: octaheme c-type cytochrome, trimeric; preparation not described
Km (purified protein): 5.8 ± 0.7 µM | Vmax (purified protein): 2.7 µmol/min/mg | kcat (purified protein): 8.4 s⁻¹ | kcat/Km (purified protein): 1.4e+06 M⁻¹ s⁻¹
